From patent US20240317847A1 (Bayer, published 2024)

T1: human IL-11 (human, UniProt P20809 22-199)
T1 sequence: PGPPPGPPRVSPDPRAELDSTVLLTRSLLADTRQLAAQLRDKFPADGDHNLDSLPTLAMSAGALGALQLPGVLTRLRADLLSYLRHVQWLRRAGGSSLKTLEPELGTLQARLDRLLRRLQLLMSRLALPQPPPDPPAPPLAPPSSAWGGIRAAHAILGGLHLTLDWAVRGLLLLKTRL

T2: rat IL-11 (rat, UniProt Q99MF5 22-199)
T2 sequence: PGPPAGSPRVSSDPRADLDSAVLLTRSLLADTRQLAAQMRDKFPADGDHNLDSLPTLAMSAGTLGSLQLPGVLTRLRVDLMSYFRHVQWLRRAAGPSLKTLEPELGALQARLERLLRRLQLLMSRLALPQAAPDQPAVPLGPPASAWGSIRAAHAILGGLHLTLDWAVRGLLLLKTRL

T3: murine IL-11 (mouse, UniProt P47873 22-199)
T3 sequence: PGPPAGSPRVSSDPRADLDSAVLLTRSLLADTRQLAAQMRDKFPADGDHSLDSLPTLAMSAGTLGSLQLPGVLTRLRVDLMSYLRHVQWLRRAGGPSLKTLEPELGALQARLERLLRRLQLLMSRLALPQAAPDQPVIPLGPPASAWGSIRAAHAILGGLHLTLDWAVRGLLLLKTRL

T4: cynomolgus IL-11 (cynomolgus, UniProt P20808 22-199)
T4 sequence: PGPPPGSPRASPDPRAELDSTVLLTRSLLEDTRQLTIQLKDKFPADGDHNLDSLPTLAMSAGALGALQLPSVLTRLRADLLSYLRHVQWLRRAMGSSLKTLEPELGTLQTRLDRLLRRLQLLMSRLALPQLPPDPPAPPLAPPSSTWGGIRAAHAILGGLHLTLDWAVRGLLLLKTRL


What was measured:
human IL-11 [1] = target: T1, human IL-11; test: cell-based or functional assay
rat IL-11 [2] = target: T2, rat IL-11; test: cell-based or functional assay
murine IL-11 [3] = target: T3, murine IL-11; test: cell-based or functional assay
cynomolgus IL-11 [4] = target: T4, cynomolgus IL-11; test: cell-based or functional assay
human IL-11 [5] = target: T1, human IL-11; test: SPR (Biacore), 37 C, antibody captured via anti-Fc, IL-11 as analyte
Protocol: (§1) To assess the binding kinetics and affinity of anti-IL-11 bispecific antibodies as well as their species cross-reactivity profile, binding assays were conducted using surface plasmon resonance (SPR). […] Antibodies were captured either via anti-human Fc IgGs (“Human antibody capture kit”, Order No. BR100839, Cytiva) or via anti-mouse Fc IgGs (“Mouse antibody capture kit, Order No. BR100383, Cytiva) covalently amine coupled to a Series S CM5 sensor chip (Cytiva) depending on the isotype. The amine coupling was carried out according to the manufacturer's instructions using 1-ethyl-3-(3-dimethylaminopropyl) carbodiimide hydrochloride (EDC), N-hydroxysuccinimide (NHS) and ethanolamine HCl, pH 8.5 (“Amine Coupling Kit” BR-1000-50, Cytiva.). Human, mouse, cynomolgus or rat IL-11 was used as analyte at several dilutions within the concentration range from 0.05-200 nM. For binding assays with only one concentration 200 nM IL-11 was used. The sensor surface was regenerated with glycine pH 1.7 after each antigen injection. Obtained sensorgrams were double referenced (subtraction of reference flow cell signal and buffer injection) and were fitted to a 1:1 Langmuir binding model to derive kinetic data using the Biacore T200 Evaluation software or the Biacore Insight software.
(§2) If no value is reported, there was either no binding or very low binding and multiphasic binding behavior.

rat IL-11 [6] = target: T2, rat IL-11; test: as above
Protocol: as §1, §2

murine IL-11 [7] = target: T3, murine IL-11; test: as above
Protocol: as §1, §2

cynomolgus IL-11 [8] = target: T4, cynomolgus IL-11; test: as above
Protocol: as §1, §2

murine IL-11 [9] = target: T3, murine IL-11; test: Tri-complex ELISA, mIL-11 + mIL-11Ra-Fc + mgp130-Fc, inhibition of complex formation

Row | Binder | Efficacy (%), Stat3 reporter gene assay (human IL-11 [1]) [%] | IC50, Stat3 reporter gene assay (human IL-11 [1]) [nM] | Efficacy (%), Stat3 reporter gene assay (rat IL-11 [2]) [%] | IC50, Stat3 reporter gene assay (rat IL-11 [2]) [nM] | Efficacy (%), Stat3 reporter gene assay (murine IL-11 [3]) [%] | IC50, Stat3 reporter gene assay (murine IL-11 [3]) [nM] | Efficacy (%), Stat3 reporter gene assay (cynomolgus IL-11 [4]) [%] | IC50, Stat3 reporter gene assay (cynomolgus IL-11 [4]) [nM] | Kd (human IL-11 [5]) [nM] | Kd (rat IL-11 [6]) [nM] | Kd (murine IL-11 [7]) [nM] | Kd (cynomolgus IL-11 [8]) [nM] | Efficacy (%) (murine IL-11 [9]) | IC50 (murine IL-11 [9]) [nM]
1 | TPP-29519 (antibody, mouse IgG1, mIgG1, Lambda) heavy: QVQLVESGGGVVQPGRSLRLSCAASGFTFSHYDMHWVRQAPGKGLEWVAVISYHGSVKFYADSVKGRFTISRDNSKNTLYLQMNSLRAEDTAVYYCARTPGFHFDYWGQGTLVTVSSAKTTPPSVYPLAPGSAAQTNSMVTLGCLVKGYFPEPVTVTWNSGSLSSGVHTFPAVLQSDLYTLSSSVTVPSSTWPSETVTCNVAHPASSTKVDKKIVPRDCGCKPCICTVPEVSSVFIFPPKPKDVLTITLTPKVTCVVVDISKDDPEVQFSWFVDDVEVHTAQTQPREEQFNSTFRSVSELPIMHQDWLNGKEFKCRVNSAAFPAPIEKTISKTKGRPKAPQVYTIPPPKEQMAKDKVSLTCMITDFFPEDITVEWQWNGQPAENYKNTQPIMDTDGSYFVYSKLNVQKSNWEAGNTFTCSVLHEGLHNHHTEKSLSHSPGK light: QSVLTQPPSASGTPGQRVTISCSGSSSNIGSNYVSWYQQLPGTAPKLLIYYDDLRPSGVPDRFSGSKSGTSASLAISGLRSEDEADYYCSAWDDSLSGVVFGGGTKLTVLGQPKSSPSVTLFPPSSEELETNKATLVCTITDFYPGVVTVDWKVDGTPVTQGMETTQPSKQSNNKYMASSYLTLTARAWERHSSYSCQVTHEGHTVEKSLSRADCS | 100 | 1.8 | 99.7 | 1 | 101 | 1.2 | 99.2 | 0.89 | 0.01 | 0.023 | 0.0035 | 0.61 | 81.3 | 0.14
2 | TPP-29528 (antibody, mouse IgG1, mIgG1, Lambda) heavy: EVQLLESGGGLVQPGGSLRLSCAASGFTFSSYGMHWVRQAPGKGLEWVAVISYDGSYKYYADSVKGRFTISRDNSKNTLYLQMNSLRAEDTAVYYCAAGVPDYWGQGTLVTVSSAKTTPPSVYPLAPGSAAQTNSMVTLGCLVKGYFPEPVTVTWNSGSLSSGVHTFPAVLQSDLYTLSSSVTVPSSTWPSETVTCNVAHPASSTKVDKKIVPRDCGCKPCICTVPEVSSVFIFPPKPKDVLTITLTPKVTCVVVDISKDDPEVQFSWFVDDVEVHTAQTQPREEQFNSTFRSVSELPIMHQDWLNGKEFKCRVNSAAFPAPIEKTISKTKGRPKAPQVYTIPPPKEQMAKDKVSLTCMITDFFPEDITVEWQWNGQPAENYKNTQPIMDTDGSYFVYSKLNVQKSNWEAGNTFTCSVLHEGLHNHHTEKSLSHSPGK light: QSVLTQPPSASGTPGQRVTISCSGSSSNIGSDYDVHWYQQLPGTAPKLLIYSNEERPSGVPDRFSGSKSGTSASLAISGLRSEDEADYYCSAWDSSLSGPVFGGGTKLTVLGQPKSSPSVTLFPPSSEELETNKATLVCTITDFYPGVVTVDWKVDGTPVTQGMETTQPSKQSNNKYMASSYLTLTARAWERHSSYSCQVTHEGHTVEKSLSRADCS | 81.2 | – | 89.9 | 1.8 | 96.9 | 0.89 | 87.8 | 0.44 | 0.34 | 0.33 | 0.23 | 0.2 | 94.7 | 0.6

The next binders have a lower Kd (human IL-11 [5]) than those just listed; values first:

Row | Efficacy (%), Stat3 reporter gene assay (human IL-11 [1]) [%] | IC50, Stat3 reporter gene assay (human IL-11 [1]) [nM] | Efficacy (%), Stat3 reporter gene assay (rat IL-11 [2]) [%] | IC50, Stat3 reporter gene assay (rat IL-11 [2]) [nM] | Efficacy (%), Stat3 reporter gene assay (murine IL-11 [3]) [%] | IC50, Stat3 reporter gene assay (murine IL-11 [3]) [nM] | Efficacy (%), Stat3 reporter gene assay (cynomolgus IL-11 [4]) [%] | IC50, Stat3 reporter gene assay (cynomolgus IL-11 [4]) [nM] | Kd (human IL-11 [5]) [nM] | Kd (rat IL-11 [6]) [nM] | Kd (murine IL-11 [7]) [nM] | Kd (cynomolgus IL-11 [8]) [nM] | Efficacy (%) (murine IL-11 [9]) | IC50 (murine IL-11 [9]) [nM] | Binder
3 | 101 | 4.1 | 99.9 | 2 | 102 | 2 | 101 | 1.7 | 0.0019 | 0.0034 | 0.0017 | 0.0022 | – | – | TPP-29603 (bispecific antibody, IgG1, scFv-kih-mIgG1; bispecific comprising CDRs of TPP-29528 and TPP-29519) chain 1: QVQLVESGGGVVQPGRSLRLSCAASGFTFSHYDMHWVRQAPGKGLEWVAVISYHGSVKFYADSVKGRFTISRDNSKNTLYLQMNSLRAEDTAVYYCARTPGFHFDYWGQGTLVTVSSGGGGSGGGGSGGGGSQSVLTQPPSASGTPGQRVTISCSGSSSNIGSNYVSWYQQLPGTAPKLLIYYDDLRPSGVPDRFSGSKSGTSASLAISGLRSEDEADYYCSAWDDSLSGVVFGGGTKLTVLGGGGSGGGGSGGGGSGVECPPCPAPPVAGPSVFIFPPKPKDVLTITLTPKVTCVVVDISKDDPEVQFSWFVDDVEVHTAQTQPREEQFNSTFRSVSELPIMHQDWLNGKEFKCRVNSAAFPAPIEKTISKTKGRPKAPQVYTIPPCKEQMAKDKVSLWCMITDFFPEDITVEWQWNGQPAENYKNTQPIMDTDGSYFVYSKLNVQKSNWEAGNTFTCSVLHEGLHNHHTEKSLSHSPGK chain 2: EVQLLESGGGLVQPGGSLRLSCAASGFTFSSYGMHWVRQAPGKGLEWVAVISYDGSYKYYADSVKGRFTISRDNSKNTLYLQMNSLRAEDTAVYYCAAGVPDYWGQGTLVTVSSGGGGSGGGGSGGGGSQSVLTQPPSASGTPGQRVTISCSGSSSNIGSDYDVHWYQQLPGTAPKLLIYSNEERPSGVPDRFSGSKSGTSASLAISGLRSEDEADYYCSAWDSSLSGPVFGGGTKLTVLGGGGSGGGGSGGGGSGVECPPCPAPPVAGPSVFIFPPKPKDVLTITLTPKVTCVVVDISKDDPEVQFSWFVDDVEVHTAQTQPREEQFNSTFRSVSELPIMHQDWLNGKEFKCRVNSAAFPAPIEKTISKTKGRPKAPQVCTIPPPKEQMAKDKVSLSCAITDFFPEDITVEWQWNGQPAENYKNTQPIMDTDGSYFVVSKLNVQKSNWEAGNTFTCSVLHEGLHNHHTEKSLSHSPGK
4 | 99.1 | 2 | 97.6 | ~1.2 | 99.6 | 1.4 | 100 | 0.75 | < 0.001 | < 0.001 | < 0.001 | < 0.001 | – | – | TPP-29697 (bispecific antibody, IgG1, scFv-kih-hIgG1 with Fc-silencing mutations; bispecific comprising CDRs of TPP-29528 and TPP-29519) chain 1: QVQLVESGGGVVQPGRSLRLSCAASGFTFSHYDMHWVRQAPGKGLEWVAVISYHGSVKFYADSVKGRFTISRDNSKNTLYLQMNSLRAEDTAVYYCARTPGFHFDYWGQGTLVTVSSGGGGSGGGGSGGGGSQSVLTQPPSASGTPGQRVTISCSGSSSNIGSNYVSWYQQLPGTAPKLLIYYDDLRPSGVPDRFSGSKSGTSASLAISGLRSEDEADYYCSAWDDSLSGVVFGGGTKLTVLGGGGSGGGGSGGGGSGVECPPCPAPPVAGPSVFLFPPKPKDTLMISRTPEVTCVVVGVSHEDPEVKFNWYVDGVEVHNAKTKPREEQYNSTYRVVSVLTVLHQDWLNGKEYKCKVSNKQLPSPIEKTISKAKGQPREPQVYTLPPCRDELTKNQVSLWCLVKGFYPSDIAVEWESNGQPENNYKTTPPVLDSDGSFFLYSKLTVDKSRWQQGNVFSCSVMHEALHNHYTQKSLSLSPGK chain 2: EVQLLESGGGLVQPGGSLRLSCAASGFTFSSYGMHWVRQAPGKGLEWVAVISYDGSYKYYADSVKGRFTISRDNSKNTLYLQMNSLRAEDTAVYYCAAGVPDYWGQGTLVTVSSGGGGSGGGGSGGGGSQSVLTQPPSASGTPGQRVTISCSGSSSNIGSDYDVHWYQQLPGTAPKLLIYSNEERPSGVPDRFSGSKSGTSASLAISGLRSEDEADYYCSAWDSSLSGPVFGGGTKLTVLGGGGSGGGGSGGGGSGVECPPCPAPPVAGPSVFLFPPKPKDTLMISRTPEVTCVVVGVSHEDPEVKFNWYVDGVEVHNAKTKPREEQYNSTYRVVSVLTVLHQDWLNGKEYKCKVSNKQLPSPIEKTISKAKGQPREPQVCTLPPSRDELTKNQVSLSCAVKGFYPSDIAVEWESNGQPENNYKTTPPVLDSDGSFFLVSKLTVDKSRWQQGNVFSCSVMHEALHNHYTQKSLSLSPGK
